According to patent publication US20220251236A1 (Boehringer Ingelheim, published 2022):
Residue numbers refer to the chain shown, from its start.

T1: Human DLL3-His (human, UniProt Q9NYJ7 27-492)
T1 construct: also called huDLL3-His; hu DLL3
T1 sequence: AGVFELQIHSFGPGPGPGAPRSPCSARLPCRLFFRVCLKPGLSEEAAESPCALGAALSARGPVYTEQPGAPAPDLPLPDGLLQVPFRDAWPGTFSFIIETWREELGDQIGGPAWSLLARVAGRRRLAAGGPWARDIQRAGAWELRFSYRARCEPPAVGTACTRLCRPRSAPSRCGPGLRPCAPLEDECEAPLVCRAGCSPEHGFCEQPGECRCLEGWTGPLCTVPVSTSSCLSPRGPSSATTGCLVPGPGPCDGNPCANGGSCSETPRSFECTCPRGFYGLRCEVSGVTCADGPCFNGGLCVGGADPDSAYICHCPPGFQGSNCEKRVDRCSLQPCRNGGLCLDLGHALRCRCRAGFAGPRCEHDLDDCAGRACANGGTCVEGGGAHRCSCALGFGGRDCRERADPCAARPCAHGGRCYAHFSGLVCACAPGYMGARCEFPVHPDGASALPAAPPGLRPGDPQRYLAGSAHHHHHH

T2: FLAG-tagged human DLL1 full length (human, UniProt O00548 1-723)
T2 construct: also called human DLL1 on HEK293 cells
T2 sequence: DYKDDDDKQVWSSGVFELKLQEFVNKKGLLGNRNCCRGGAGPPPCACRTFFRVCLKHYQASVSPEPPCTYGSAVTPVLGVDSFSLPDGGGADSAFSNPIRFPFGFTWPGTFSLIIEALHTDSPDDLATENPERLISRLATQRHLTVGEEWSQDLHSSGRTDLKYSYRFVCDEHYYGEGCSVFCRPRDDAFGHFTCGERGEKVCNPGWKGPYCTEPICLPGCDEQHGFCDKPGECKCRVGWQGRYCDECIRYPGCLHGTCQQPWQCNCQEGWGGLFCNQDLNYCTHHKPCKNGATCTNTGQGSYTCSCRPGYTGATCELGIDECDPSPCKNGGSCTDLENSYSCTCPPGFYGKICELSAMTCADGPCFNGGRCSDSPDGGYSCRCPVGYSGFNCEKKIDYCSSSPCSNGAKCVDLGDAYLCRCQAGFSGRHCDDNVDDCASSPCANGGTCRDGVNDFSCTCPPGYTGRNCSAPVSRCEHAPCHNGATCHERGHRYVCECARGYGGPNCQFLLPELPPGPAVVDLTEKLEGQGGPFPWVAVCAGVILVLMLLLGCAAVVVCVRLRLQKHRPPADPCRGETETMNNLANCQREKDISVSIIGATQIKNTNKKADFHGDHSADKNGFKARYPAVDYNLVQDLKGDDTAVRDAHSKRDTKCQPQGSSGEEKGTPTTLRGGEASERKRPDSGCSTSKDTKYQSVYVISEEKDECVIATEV

T3: EGF1+2
T3 construct: also called Hu DLL3 EGF1+2 on HEK293 cells
T3 membrane-anchored DLL3 subdomain construct: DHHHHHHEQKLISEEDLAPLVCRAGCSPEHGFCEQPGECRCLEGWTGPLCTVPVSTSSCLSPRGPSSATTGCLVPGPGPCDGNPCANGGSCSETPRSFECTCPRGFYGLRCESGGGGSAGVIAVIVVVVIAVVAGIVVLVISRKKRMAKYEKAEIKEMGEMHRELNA

B1: DLL3#2/CD3#1 (bispecific antibody, human IgG1, kappa, lambda, L234A L235A)
chain 1: DIQMTQSPSAMSASVGDRVTITCRASQGISNYLAWFQQKPGKVPEPLIYAASSLQSGVPSRFSGSGSVTEFTLTISSLQPEDFATYYCLQHNSSPYTFGQGTKLEIKRTVAAPSVFIFPPSDEQLKSGTASVVCLLNNFYPREAKVQWKVDNALQSGNSQESVTEQDSKDSTYSLSSTLTLSKADYEKHKVYACEVTHQGLSSPVTKSFNRGECGGGGSEGKSSGSGSESKSTEGKSSGSGSESKSTGGGGSQVQLVQSGAEVKKPGASVKVSCKASGYTFTSYYMHWVRQAPGQGLEWMGIINPSGGSTSYAQKFQGRVTMTRDTSTSTVYMELSSLRSEDTAVYYCARGEAVGGNYYYYGMDVWGQGTTVTVSSASTKGPSVFPLAPSSKSTSGGTAALGCLVKDYFPEPVTVSWNSGALTSGVHTFPAVLQSSGLYSLSSVVTVPSSSLGTQTYICNVNHKPSNTKVDKRVEPKSCDKTHTCPPCPAPEAAGGPSVFLFPPKPKDTLMISRTPEVTCVVVDVSHEDPEVKFNWYVDGVEVHNAKTKPREEQYNSTYRVVSVLTVLHQDWLNGKEYKCKVSNKALPAPIEKTISKAKGQPREPQVYTLPPSREEMTKNQVSLWCLVKGFYPSDIAVEWESNGQPENNYKTTPPVLDSDGSFFLYSKLTVDKSRWQQGNVFSCSVMHEALHNHYTQKSLSLSPG
chain 2: EAVVTQEPSLTVSPGGTVTLTCRSSTGAVTTSNYANWVQEKPGQLPRGLIGGTNKRAPWVPARFSGSLLGGKAALTLSGAQPEDEAEYFCALWYSNLWVFGGGTKLTVLGQPKAAPSVTLFPPSSEELQANKATLVCLISDFYPGAVKVAWKADGSPVNTGVETTTPSKQSNNKYAASSYLSLTPEQWKSHRSYSCQVTHEGSTVEKTVAPAECSGGGGSEGKSSGSGSESKSTEGKSSGSGSESKSTGGGGSEVQLVESGGGLVQPGGSLKLSCAASGFTFNTYAMNWVRQAPGKGLEWVARIRSKYNNYATYYADSVKDRFTISRDDSKNTAYLQMNNLKTEDTAVYYCVRHGNFGNSYVSWFAYWGQGTLVTVSAASTKGPSVFPLAPSSKSTSGGTAALGCLVKDYFPEPVTVSWNSGALTSGVHTFPAVLQSSGLYSLSSVVTVPSSSLGTQTYICNVNHKPSNTKVDKRVEPKSCDKTHTCPPCPAPEAAGGPSVFLFPPKPKDTLMISRTPEVTCVVVDVSHEDPEVKFNWYVDGVEVHNAKTKPREEQYNSTYRVVSVLTVLHQDWLNGKEYKCKVSNKALPAPIEKTISKAKGQPREPQVYTLPPSREEMTKNQVSLSCAVKGFYPSDIAVEWESNGQPENNYKTTPPVLDSDGSFFLVSKLTVDKSRWQQGNVFSCSVMHEALHNRFTQKSLSLSPG
notes: Heterodimer of one DLL3 chain and one CD3 chain (scFab-Fc, knob-in-hole)
B2: DLL3#3/CD3#1 (bispecific antibody, human IgG1, kappa, lambda, L234A L235A)
chain 1: DIQMTQSPSAMSASVGDRVTITCRASQGISNYLVWFQQKPGKAPKRLIYAVSSLYSGVPSRFSGSGSGTEFTLTISSLQPEDFATYYCLQHDSYPYTFGQGTKLEIKRTVAAPSVFIFPPSDEQLKSGTASVVCLLNNFYPREAKVQWKVDNALQSGNSQESVTEQDSKDSTYSLSSTLTLSKADYEKHKVYACEVTHQGLSSPVTKSFNRGECGGGGSEGKSSGSGSESKSTEGKSSGSGSESKSTGGGGSQVQLVQSGAEVKKPGASVKVSCKASGYTFTSYYVHWVRQAPGQGLEWMVIINPGGGTTSYAQKFLGRVTMTRDTSTNTVYMELKSLRSEDTAVYYCARGEAVTGNYFYYGMDVWGQGTTVTVSSASTKGPSVFPLAPSSKSTSGGTAALGCLVKDYFPEPVTVSWNSGALTSGVHTFPAVLQSSGLYSLSSVVTVPSSSLGTQTYICNVNHKPSNTKVDKRVEPKSCDKTHTCPPCPAPEAAGGPSVFLFPPKPKDTLMISRTPEVTCVVVDVSHEDPEVKFNWYVDGVEVHNAKTKPREEQYNSTYRVVSVLTVLHQDWLNGKEYKCKVSNKALPAPIEKTISKAKGQPREPQVYTLPPSREEMTKNQVSLWCLVKGFYPSDIAVEWESNGQPENNYKTTPPVLDSDGSFFLYSKLTVDKSRWQQGNVFSCSVMHEALHNHYTQKSLSLSPG
chain 2: B1 chain 2
notes: as for B1
B3: DLL3#5/CD3#1 (bispecific antibody, human IgG1, kappa, lambda, L234A L235A)
chain 1: not shown
chain 2: B1 chain 2
notes: as for B1
B4: DLL3#13/CD3#1 (bispecific antibody, human IgG1, kappa, lambda, L234A L235A)
chain 1: DVLMTQTPLSLPVSLGDQAAISCRSSQSIVHSNGNTYLEWYLQKPGQSPKVLIYKVSNRFSGVPDRFSGSGSGTDFTLKISRVEAEDLGVYYCFQGSHVPYTFGGGTKLEIKRTVAAPSVFIFPPSDEQLKSGTASVVCLLNNFYPREAKVQWKVDNALQSGNSQESVTEQDSKDSTYSLSSTLTLSKADYEKHKVYACEVTHQGLSSPVTKSFNRGECGGGGSEGKSSGSGSESKSTEGKSSGSGSESKSTGGGGSQIQLVQSGPELKKPGETVKISCKASGYTFTNYGVTWVKQAPGKGLKWMGWINTYSGAPTYADDFNGRFALSLETSASTAYLQINNLKNEDTATYFCARLDDYDLYYFDYWGQGTALTVSSASTKGPSVFPLAPSSKSTSGGTAALGCLVKDYFPEPVTVSWNSGALTSGVHTFPAVLQSSGLYSLSSVVTVPSSSLGTQTYICNVNHKPSNTKVDKRVEPKSCDKTHTCPPCPAPEAAGGPSVFLFPPKPKDTLMISRTPEVTCVVVDVSHEDPEVKFNWYVDGVEVHNAKTKPREEQYNSTYRVVSVLTVLHQDWLNGKEYKCKVSNKALPAPIEKTISKAKGQPREPQVYTLPPSREEMTKNQVSLWCLVKGFYPSDIAVEWESNGQPENNYKTTPPVLDSDGSFFLYSKLTVDKSRWQQGNVFSCSVMHEALHNHYTQKSLSLSPG
chain 2: B1 chain 2
notes: as for B1
B5: DLL3#18/CD3#1 (bispecific antibody, human IgG1, kappa, lambda, L234A L235A)
chain 1: DIQMTQSPASLAASVGETVTITCRASENIYYSLAWYQQKQGKSPQLLIYNANSLEDGVPSRFSGSGSGTQYSMKINNMQPEDTATYFCKQAYDVPLTFGAGTKLELKRTVAAPSVFIFPPSDEQLKSGTASVVCLLNNFYPREAKVQWKVDNALQSGNSQESVTEQDSKDSTYSLSSTLTLSKADYEKHKVYACEVTHQGLSSPVTKSFNRGECGGGGSEGKSSGSGSESKSTEGKSSGSGSESKSTGGGGSQVQLQQSGPDLVKPGASVKMSCEASGYTFTAYFIHWVKQKPGQGLEWIGYIDPFNDDTNYNVKFKGKATLTSDTSSSIAYMELSSLTSEDSSFYYCARGTSATLDYWGHGTTLTVSSASTKGPSVFPLAPSSKSTSGGTAALGCLVKDYFPEPVTVSWNSGALTSGVHTFPAVLQSSGLYSLSSVVTVPSSSLGTQTYICNVNHKPSNTKVDKRVEPKSCDKTHTCPPCPAPEAAGGPSVFLFPPKPKDTLMISRTPEVTCVVVDVSHEDPEVKFNWYVDGVEVHNAKTKPREEQYNSTYRVVSVLTVLHQDWLNGKEYKCKVSNKALPAPIEKTISKAKGQPREPQVYTLPPSREEMTKNQVSLWCLVKGFYPSDIAVEWESNGQPENNYKTTPPVLDSDGSFFLYSKLTVDKSRWQQGNVFSCSVMHEALHNHYTQKSLSLSPG
chain 2: B1 chain 2
notes: as for B1
B6: DLL3#3/CD3#2 (bispecific antibody, human IgG1, kappa, lambda, L234A L235A)
chain 1: B2 chain 1
chain 2: B1 chain 2 with N309I
notes: as for B1

Biological target: T1, Human DLL3-His
Experiment: SPR (ProteOn XPR36), bispecific captured on protein A/G, hu DLL3 as analyte, Example 4B
Method in brief: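 Bispecific constructs captured on protein A/G for 200 s at 30 μl/min, baseline stabilized with PBS-T-EDTA. Human DLL3 analyte injected 300 s at 30 μl/min; dissociation followed for 1800 s.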

How did the Kd turn out when B1 was run?
The Kd was 0.091 nM.

With B2 as the binder, how does the Kd read?
Its Kd is 0.075 nM.

How did the Kd turn out when B3 was run?
Its Kd is under 0.02 nM.

Which Kd does the source give for B4 here?
Its Kd is 0.023 nM.

Which Kd does the source give for B5 here?
The Kd was under 0.02 nM.

How did the Kd turn out when B6 was run?
Its Kd is 0.12 nM.

Biological target: T2, FLAG-tagged human DLL1 full length
Experiment: flow cytometry on HEK293 cells expressing human DLL1 (HEK293-huDLL1), PE anti-human secondary, control: secondary antibody only
Experimental: (§1) Bound molecules were detected with PE-conjugated anti-human secondary antibody (Sigma-Aldrich, #P8047). As negative control, cells were incubated with secondary antibody only. The samples were measured by flow-cytometry.

Does B1 bind?
Result: no binding (tested: 1.6 nM)

Does B2 bind?
Result: no binding (tested: 1.6 nM)

Does B3 bind?
Result: no binding (tested: 1.6 nM)

Does B6 bind?
Result: no binding (tested: 1.6 nM)

Biological target: T4, FLAG-tagged human DLL4 full length (human, UniProt Q9NR61 1-685)
T4 construct: also called human DLL4 on HEK293 cells
Experiment: flow cytometry on HEK293 cells expressing human DLL4 (HEK293-huDLL4), PE anti-human secondary, control: secondary antibody only
Experimental: as §1

T4 sequence (Q9NR61 other isoform, or with tags, fused parts or gaps limits assumed): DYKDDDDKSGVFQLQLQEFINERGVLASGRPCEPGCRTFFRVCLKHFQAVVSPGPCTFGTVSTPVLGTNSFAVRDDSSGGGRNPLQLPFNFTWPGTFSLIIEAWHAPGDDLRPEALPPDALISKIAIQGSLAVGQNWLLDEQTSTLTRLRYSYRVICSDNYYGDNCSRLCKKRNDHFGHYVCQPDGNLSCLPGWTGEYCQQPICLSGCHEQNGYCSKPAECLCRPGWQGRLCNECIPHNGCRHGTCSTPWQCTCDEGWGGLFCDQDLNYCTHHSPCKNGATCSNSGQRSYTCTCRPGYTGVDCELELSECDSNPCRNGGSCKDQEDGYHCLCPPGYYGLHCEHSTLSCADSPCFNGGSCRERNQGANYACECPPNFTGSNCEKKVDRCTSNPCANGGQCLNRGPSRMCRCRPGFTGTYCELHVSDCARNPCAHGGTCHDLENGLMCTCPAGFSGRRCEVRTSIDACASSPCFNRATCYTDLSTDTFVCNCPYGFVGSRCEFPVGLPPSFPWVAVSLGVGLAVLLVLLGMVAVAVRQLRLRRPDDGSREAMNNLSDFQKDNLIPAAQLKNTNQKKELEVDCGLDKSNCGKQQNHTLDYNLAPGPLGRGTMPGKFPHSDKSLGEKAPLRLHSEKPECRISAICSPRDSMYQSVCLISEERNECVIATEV

Does B1 bind?
Result: no binding (tested: 1.6 nM)

Does B2 bind?
Result: no binding (tested: 1.6 nM)

Does B3 bind?
Result: no binding (tested: 1.6 nM)

Does B6 bind?
Result: no binding (tested: 1.6 nM)

Biological target: T3, EGF1+2
Experiment: flow cytometry on HEK293 cells expressing the DLL3 subdomain construct, PE anti-human secondary, control: secondary antibody only
Method in brief: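 Binders tested on HEK293 cells displaying the DLL3 subdomain construct; bound molecules detected by flow cytometry using PE-conjugated anti-human secondary antibody. Negative control: cells with secondary antibody only.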

Does B1 bind?
Result: no binding (tested: 1.6 nM)

Does B2 bind?
Result: no binding (tested: 1.6 nM)

Does B4 bind?
Result: no binding (tested: 1.6 nM)

Does B5 bind?
Result: no binding (tested: 1.6 nM)

Does B6 bind?
Result: no binding (tested: 1.6 nM)
